The nanobody polyreactivity screen of Harvey et al. (2022)

Assay: yeast display, Sf9 membrane polyspecificity reagent, FACS + sequencing; frameworks hold sequencing errors
How it was run: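 After 36–48 hours of galactose induction, yeast (Saccharomyces cerevisiae BJ5465) displaying a synthetic nanobody library were stained at 4 °C for 1 hour with 10% biotinylated, detergent-solubilized Sf9 membrane reagent. Streptavidin microbeads enriched the stained cells before FACS sorting into low and high (top ~1%) gates on anti-HA and streptavidin fluorescence. Each clone's polyreactivity label reflects its gate of origin.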

Row | Sequence | polyreactivity (PSR sort gate)
1 | QVQLVESGGGLVQAGGSLRLSCAASGFTFYHYAMGWYRPAPGKERELVAAISKSGGRTYYADSVKGRFTISRDNAMYTVYLQMNSLKPEDTAVYYFNAAYRTTSYENDYWGQGTQVTVSS | low polyreactivity
2 | QVQLVESGGGLVQAGGSLSLSCAASGGTFLSNAMGWYRQAPGKERELVASISWGGGSTTYADSVKGRFTISRDNAKNTVYLQMNSLKPEDTAVYYCNALDGPGYYVDYDYWGQGTQVTVSS | low polyreactivity
3 | QVQLVESGGGLVQSGGSLRLSCAASGFIFKLNAMGWYRPAPGKERELVATITRGGDTKYADSVKGRFTISRDNAKNTVYLQMNSLKPEDTAVEYCAARYTPSSYIYRFYNFYGYDYWGQGTQVTVSS | high polyreactivity
4 | QVQLVESGGGLVQAGGSHRLSCAASGFIFYYYTRGWYRQAPGKERELVAAISRGRGSTYYADSVKGRFTISRDNAKNTVYLQMNSLKPEDTAVYYCARTDRRLGAHQGDYWGQGTQVTVSS | high polyreactivity
5 | QVQLVESGGGLVQAGGSLRLSCAASGNISPGNVMGWYRQAPGKERELVAAITISGGSTYYADSVKGRFTISRDNAKNTVYLQMNSLKPEDTAVYYCAKRTKFYYTGSGYGKYYYWGQGTQVTVSS | high polyreactivity
6 | QVQLVESGGGLVQAGGSLRLSCAASGSIFPYYAMGWYRQAPGKVRELVATISSGGSTKYADSVKGRFTISRDNAKNTVYLQMNSLKPEDTAVYYCAADWYLGPYSWYTEKYNYCGQGTQVTVSS | high polyreactivity
7 | QVQLVESGGGLVQAGGSLRLSCAASGFIFSVNAMGWYRQAPGKERELVAAISKRGGRTYYADSVKGRFTISRDNAKNTVYLQMNSLKPEDTAVYYCAADQPTLAYPGGYSAGMDYWGQGTQVTVSS | high polyreactivity
8 | QVQLVESGGGLVQAGGSLRLSCAASGSILNPNAMGWSRQAPGKERELVASISKSGGSTYYADSVKGRFTISRDNAKNTVYLQMNSLKPEDTAVYYCAAAFVSVRERYGYWGQGTQVTVSS | high polyreactivity
9 | QVQLVESGGGLVQAGGSLRLSCAASGRTFYAYTRGWYRQAPGKERELVAAISSSGTRTYYADSVKGRFTISRDNAKNTVYLQMNSLKPEDTAVYDCAKGTQRFRGLDHGYDYWGQGTQVTVSS | high polyreactivity
10 | QVQLVESGGGLVQAGGSLRLSCAASGSIFIINAMGWYRQAPGKERELVAAITTSGGRTYYADSVKGRFTISRDNAKNTVYLQMNSLKPEDTAVYSCASSHYGSTGNYWGQGTQVTVSS | low polyreactivity
11 | QVQLVESGGGLVQAGGSLRLSCAASGRTFGRYAMGWYRQAPGKERELVARISFTGGSTYADSVKGRFTISRDNAKNTVYLQMNSLKPEDTAVYYCNVPYYINHKFYDSPFVQRYDYWGQGTQVTVSS | low polyreactivity
12 | QVQLVESVGGLVQAGGSLRLSCAASGLTFWYYAMGCYRQAPGKERELVARITRSGVGTYYADSVKGRFTISRDNAKNTVYLQMNSLKAEDTAVYYCNARYQYSWVRYGYDYWGQGTQVTVSS | high polyreactivity
13 | QVQLVESGGGFVQAGGSLRLSCAASGFIFGYYAMGWYRQAPGKERELVAAITRSGSRTYYADSVKGRFTISRDNAKNTVYLQMNSLKPEDTAVYYFAKRRYWYYRSRDWFVSGVYWGQGTQVTVSS | low polyreactivity
14 | QVQLVESGGGLVQAGGSLRLSCAASGRTLVYNAMGWYRQAPGKERELVAAITTDGGDTYYADSVKGRFTISRDNAKNTVYLQMNSLKPEDTAVYYCAADYVALYYWYDYWGQGTQVTVSS | low polyreactivity
15 | QVQLVESGGGLVQAGGSLRLSCAASGFIFVVYAMGWYRQAPGTERDLVATISSGGGTYYADSVKGRFTISLDNAKNTVYLQMNSLKPEDTAVYYCAARRRRLYHFGGNNYCGQGTQVTVSS | high polyreactivity
16 | QVQRVESGGGLVQAGGSLRLSCAASGYTFEAYAMGWYRQAPGKERELVAAITINGGSTYYADSVKGRFTISRDNAKNTVYLQMNSLKPEDTAVYYCAADLFHRAGWYFAYGHWGLGTQVTVSS | low polyreactivity
17 | QVQLVESGGGLVQAGGSLRLSCAASGSTFSYNAMGWYRQAPGKERELVAAISGSGGTTYYADSVKGRFTISRDNAKNTVYLQMNSLKPEDTAVYYCAARPFRSWRYDYWGQGTQVTVSS | low polyreactivity
18 | QVQLVESGGGLVQAGGSLRLSCAASGFIFDRNAMGWYRQAPGKEREFVAAITRRGGTTYYADSVKGRFTISRDNAKNTVYLQMNSLKPEDTAVYYCAATYLHVYRRRFYYWGQGTQVTVSS | high polyreactivity
19 | QVQLVESGGGLVQAGGSLRLSCAASGSTFRYYAMGWYRQAPGKERDLVAAINRSGGSTYYADSVKGRFTISRDIAKNTVYLQMNSLKPEDTAVYYCGAPWGRHYTNPDDYWGQGTQVTVSS | high polyreactivity
20 | QVQLVESAGGLVQAGASLRLSCAASGGTSPVYAMGWYRQAPGKERELVAAIRYSGGRTNYADSVKGRFTISRDNAKNTVYLQMNSLKPEDTAVYYCAARGYRYQGDYWGQGTQVTVSS | high polyreactivity

Row | Sequence | polyreactivity (PSR sort gate)
21 | QVQLVESGGGLVQAGGSLRLSCADSGRIFQPNVMGWYRQAPGKERELVAAIRSGSSTYYADSVKGRFTISRDNAKNTVYLQMNSLKPEDTAVYYCATRRAGRGYDYWGQGTQVTVSS | high polyreactivity
22 | QVHLVESGGGLVQAGGSLRLCCAASGSILVSYAMGWYRQAAGKERELVAAITYTGGNTYYADSGKGRFTISRDNAKNTVYVQLNSQKPEDTAVYYCNAGWTQTSVTFDYWGQGTQVTVSS | low polyreactivity
23 | QVQLVESGGGLVQAGGSLRLSCAASGRTFTINAMGWYRQAPGKERELVATISYSGGSTRYADSVKGRFTISRDNAKNTVYLQMNSLQPDDTAVYYCAADAGYYGRWYGHGYGYWGQGTQVTVSS | high polyreactivity
24 | QVQLVESGGGLVQAGGSLRLSCAASGRIFVINAMGWYRQAPGKERELVAAISQSGGSTYYADSVKGRFTISRDNAKNNVYLQMNSLKPEDTAVYYCNALSNVPYDYWGQGTQVTVSS | low polyreactivity
25 | QVQLVESGGGLVQAGGSLRLSCAASGFTLEFYAMVWYRQAPGKKRELVARITTYGGSTRYADSVKGRFTISRDNAKNTVYLKMNSLKPEDTAVYNCAARGYGYRNVETYGYWGQGTQVTVSS | high polyreactivity
26 | QVQLVESGRGLVQAGGTLRLSCAASGRIFYWNAMGWYRQAHGKERELVAAISWSGGSTYYADSVKGRFTISRDNAKNTVYLQMNSLKPEDTAVYYCAADGGRRTYYVKYDYWGQGTQVTVSS | low polyreactivity
27 | QVQLVESGGGLVQAGGSLRLICAASGFTFYRYAMGWYRPAPGKERELVAAITNIAGSTYYADSVKGRFTISRDNAKNTLYLQMNSLKPEDTAVYYCNANRLRRYDYWGQGTQVTVSS | high polyreactivity
28 | QVQLLESGGGLVQAGGSLRLSCASSGSIFHTYAMGWYRPAPGKERELVAAISSGGRTYYADSVKGRFTISRDNAKNTVYLQMNSLKPEDTAVYYCAVRPRPGYYYWGQGTQVTVSS | high polyreactivity
29 | QVQLVESGGGLVQAGGSLRLSCAASGSTFSNYALGWYRPAPGKERELVAAITGRGGRTYYADSVKGRFTISRDNAKNTVYLQMNSLKPEDTAVYYCNADYWSRMDYWGQGTQVTVSS | high polyreactivity
30 | QVQLVDSGGGLVQAGGSLRLSCAASGRTFGAYDMGWYRQAPGKERELVAAISSGATTNYADSVKGRFTISRDNAKNTVYLQMNSLKPEDTAVYYCAASVYRYIYAFNYWGQGTQVTVSS | low polyreactivity
31 | QVQLVESGGGLVQAGGSLRLSCAASGRTFAPNTMGWYRQAPGKERELVATISSGGSTNYADSVKGRFTISRDNAKNTVYLQMNSLKPEDTAVYYCAARYRIVYRSHWGFTSYDYWGQGTQVTVSS | low polyreactivity
32 | QVQLVESGGGLVQAGGRLRLSCAASGSIFITYAMGWYRQAPGKEMELVAAIRDSGDRTYYADSVKGRFTISRDNAKNTVYLQMNSLKPEDTAVYYCNARWQEPLKYDYWGQGTQVTVSS | low polyreactivity
33 | QVQLVESGGGLVQAGGSLRLSCAASGRIFVGYAMGWYRQAPGKEREFVAAITFRGGTTYYADSVKGRFTITRDYAKNTVYLQMNSLKPEDTAVYYCAVPLYLYSVEYGYWGQGNQVTVSS | low polyreactivity
34 | QVQLVESGGGLVQAGGSLRLSCAASGITFRYYAMGLYRQAPGKERELVAAITRSASSTFYADSVKGRFTISRDNAKNTVYLQMNSLKPEVTAVYYCAAESVRAVFPDRYKYWGQGTQVTVSS | high polyreactivity
35 | QVQVVESGGGLVQAGASLRLSCAASGRTCLHKAMGWYRQAPGKERELVAAIDSRGTTHYADSVKGRFTISRDNAKNTVYLQMNSLKPEDTAVYYCAARPTRGHWWYAYWGQGTQVTVSS | low polyreactivity
36 | QVQLVESGGGLVQAGGSLRLSCAASGRIFSYYTMGWYRQAPGKERELVAAITSGDSTNYADSVKGRFTISRDNAKNTVYLQMNSLKPEDTAVYYCNARYSGWRSRVGSSHRPDGYWGQGTQVTVSS | high polyreactivity
37 | QVQLVESGGGLVQAGGSLRLSCAASGSNFTFYAMGWYRQAPGKERELVAAISKGGDRTYYADSVKGRFTISRDNAKNTVYLQMNSLKPEDTAVYYCARLVRPGRFGDGDYWGQGTQVTVSS | low polyreactivity
38 | QVQLVESGGGLVQAGGSLRLSCAASGFIFRSYVMGWYRQAPGKERELVAAITRSGVRTYYADSVKGRFTISRDNAKNTVYLQMNSLKPEDTAVYYCNADFSATRYWPGNYWGQGTQVTVSS | high polyreactivity
39 | QVQLVESGGGLVQAGGILRLSCAASGRTFGGNAIGWYRQAPGKERELVAAITVSAGHTYYADSVKGRFTISRDNAKNTVYLQMNSLKPEDTAVYYCAAGVPYYWSYVWKHPRFDHWGQGTQVTVSS | low polyreactivity
40 | QVQLQESGGGLVQAGGGLRLSCAASGTISGPHVMGWYRQAPGKEREFVAAINVGANTYYADNVKGRFTISRDNAKNTVYLQMNSLNPEDTAVYYCAAVYYGDIGHEYWGQGTQVTVSC | low polyreactivity
